Test results as given in patent publication US20180335435A1 (METAFORA BIOSYSTEMS, published 2018).

Molecular target: T1, human CAT1 (cationic amino acid transporter-1, SLC7A1) (human, UniProt P30825 1-629)
T1 construct: Endogenous on HEK293T cells or expressed from a human CAT1 vector in QT6, HEK293T or CHO cells; also called CAT1/SLC7A1; Hu-CAT1
Assay: flow cytometry on HEK293T cells transfected with siRNA to CAT1 (n=3)

T1 sequence (P30825 whole entry): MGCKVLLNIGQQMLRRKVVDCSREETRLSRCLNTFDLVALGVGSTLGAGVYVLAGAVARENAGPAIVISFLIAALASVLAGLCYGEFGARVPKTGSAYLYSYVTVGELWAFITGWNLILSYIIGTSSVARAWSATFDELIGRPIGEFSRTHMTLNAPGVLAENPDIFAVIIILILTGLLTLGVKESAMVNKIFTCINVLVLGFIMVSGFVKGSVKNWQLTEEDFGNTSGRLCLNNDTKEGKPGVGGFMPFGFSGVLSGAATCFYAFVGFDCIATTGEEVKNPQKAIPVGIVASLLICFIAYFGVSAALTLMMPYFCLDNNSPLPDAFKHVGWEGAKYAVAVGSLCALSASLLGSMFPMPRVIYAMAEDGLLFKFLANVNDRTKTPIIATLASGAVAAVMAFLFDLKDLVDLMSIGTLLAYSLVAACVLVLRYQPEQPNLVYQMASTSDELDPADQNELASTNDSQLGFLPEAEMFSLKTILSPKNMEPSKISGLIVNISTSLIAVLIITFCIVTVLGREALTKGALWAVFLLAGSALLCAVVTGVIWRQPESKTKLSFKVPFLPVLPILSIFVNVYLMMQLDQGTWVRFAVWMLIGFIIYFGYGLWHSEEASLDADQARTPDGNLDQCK

B1: BLV.RBD-mFc ligand (receptor-binding domain of the bovine leukemia virus envelope glycoprotein tagged in frame with the constant fragment of mouse … (Fc fusion)
chain: WRCSLSLGNQQWMTTYNQEAKFFISIDQILEAHNQSPFCPRSPRYTLDFVNGYPKIYWPPPQGRRRFGARAMVTYDCEPRCPYVGADHFDCPHWDNASQADQGSFYVNHQTLFLHLKQCHGIFTLTWEIWGYDPLITFSLHKIPAPPQGSVDVPRDCGCKPCICTVPEVSSVFIFPPKPKDVLTITLTPKVTCVVVDISKDDPEVQFSWFVDDVEVHTAQTQPREEQFNSTFRSVSELPIMHQDWLNGKEFKCRVNSAAFPAPIEKTISKTKGRPKAPQVYTIPPPKEQMAKDKVSLTCMITDFFPEDITVEWQWNGQPAENYKNTQPIMDTDGSYFVYSKLNVQKSNWEAGNTFTCSVLHEGLHNHHTEKSLSHSPGK
notes: Used as a 1/10 dilution, detected with anti-mouse IgG1-Alexa Fluor 488; also called BLV.RBD ligand; BLV.RBD tagged with mouse Fc (mFc)
B1 was tested, and the “fold decrease of binding after siRNA against CAT1 mRNA” value was 3.5 fold.
